In this test the target is T1, ACE2-ECD-sFc fusion protein (Homo sapiens).
T1 construct: also called ACE2-sFc; ACE ECD-sFc
In words: ELISA, plate coated with ACE2 ECD-sFc.

B1: HRP alone (enzyme, UniProt P00433 31-338, looked up)
chain: QLTPTFYDNSCPNVSNIVRDTIVNELRSDPRIAASILRLHFHDCFVNGCDASILLDNTTSFRTEKDAFGNANSARGFPVIDRMKAAVESACPRTVSCADLLTIAAQQSVTLAGGPSWRVPLGRRDSLQAFLDLANANLPAPFFTLPQLKDSFRNVGLNRSSDLVALSGGHTFGKNQCRFIMDRLYNFSNTGLPDPTLNTTYLQTLRGLCPLNGNLSALVDFDLRTPTIFDNKYYVNLEEQKGLIQSDQELFSSPNATDTIPLVRSFANSTQTFFNAFVEAMDRMGNITPLTGTQGQIRLNCRVVNSNS
notes: also called HPR alone; control tracer
On to B1, for which the binding result was “no binding”.

The values above are taken from US20230109393A1 (UNITED BIOMEDICAL, published 2023).
